Values quoted from earlier work as cited in doi:10.1101/2020.02.03.932012.

What was measured:
Test in all cases: stability
Conditions in all cases: single buried-residue variants, ligand-free as far as stated
Lys66 = Lys66 (UniProt position 148, FTKKMKENAKK)
Glu66 = Glu66 (UniProt position 148, FTKKMEENAKK)
Glu62 = Glu62 (UniProt position 144, EASAFEKKMVE)
Lys62 = Lys62 (UniProt position 144, EASAFKKKMVE)

Staphylococcal nuclease Delta+PHS V66K (Staphylococcus aureus; G50F;V51N;P117G;H124L;S128A;del44-49;V66K)
pKa (Lys66): 5.7

Staphylococcal nuclease Delta+PHS V66E (Staphylococcus aureus; G50F;V51N;P117G;H124L;S128A;del44-49;V66E)
pKa (Glu66): 8.5

Staphylococcal nuclease Delta+PHS T62E (Staphylococcus aureus; G50F;V51N;P117G;H124L;S128A;del44-49;T62E)
pKa (Glu62): 7.7

Staphylococcal nuclease Delta+PHS T62K (Staphylococcus aureus; G50F;V51N;P117G;H124L;S128A;del44-49;T62K)
pKa (Lys62): 8.1
